For this assay, the target named is T1, HuT-78 cells that naturally express human CCR8 (Homo sapiens, UniProt P51685).
T1 construct: HuT-78 cells that naturally express human CCR8 were used as target cells; endogenous in cells; host or cells: HuT-78
Nature of the assay: Flow cytometry binding of yeast-display optimized VHH-Fc antibodies to HuT-78 cells. Conditions: Table 13; for EC50: clones tested as VHH-Fc fusions (human IgG1 Fc), HuT-78 cells; for Normalized Bmax (%): normalized to VHH-1 or VHH-2 depending on clone family. From the text: Top VHH sequences were chosen from the FACS sorted populations based on an analysis of improved binding performance relative to the parental sequences and evidence of sequence enrichment by NGS. Candidate VHH were then cloned as VHH-Fc fusions to the short hinge of the IgG1 Fc domain (SEQ ID NO: 34), expressed in HEK293 cells as described earlier and purified for binding evaluation. Bmax values are shown as normalized to VHH-1 or VHH-2 depending on the clone family. […] Mutations are referenced by position according to the IMGT definition.
A general note: Flow cytometry measures light scatter and fluorescence of single cells or particles in a stream.

Numbering of substitutions follows the chain as printed. Numbers in names are those of the source.

T1 sequence (P51685 whole entry): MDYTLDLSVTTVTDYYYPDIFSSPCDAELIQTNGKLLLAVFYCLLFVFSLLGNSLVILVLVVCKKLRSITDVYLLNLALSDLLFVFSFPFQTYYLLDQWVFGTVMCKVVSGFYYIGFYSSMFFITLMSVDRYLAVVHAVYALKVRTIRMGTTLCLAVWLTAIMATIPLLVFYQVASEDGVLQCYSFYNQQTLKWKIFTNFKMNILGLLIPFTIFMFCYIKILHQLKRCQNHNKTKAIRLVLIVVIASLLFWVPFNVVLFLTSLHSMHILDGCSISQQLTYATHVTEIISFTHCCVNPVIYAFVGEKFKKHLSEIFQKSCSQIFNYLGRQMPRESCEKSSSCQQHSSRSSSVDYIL

B1: VHH-2.3-1: VHH-2.3 variant D81G, SEQ ID NO: 207; tested as Fc fusion (protein)
VHH: EVQLVESGGGLVQPGGSLRLSCAVSGSTSTINRFAWYRQAPGKGRELVAATSSRTSPNYADSVKGRFTFSRGNSKNTVYLQMNSLRAEDTAVYYCQARMAMGSSQVVYWGQGTTVTVSS
As to B1, a half-maximal effect (EC50) was put at 0.23 nM and the “Normalized Bmax (%)” value amounted to 118.3%.

B2: VHH-2.3-3: VHH-2.3 variant P65L, SEQ ID NO: 209; tested as Fc fusion (protein)
VHH: B1 VHH with P57L, G72D
For B2, it took 1.7 nM to reach a half-maximal effect (EC50) and the “Normalized Bmax (%)” value is on record as 83.3%.

B3: VHH-2.3-2: VHH-2.3 variant D81G, M108K, SEQ ID NO: 208; tested as Fc fusion (protein)
VHH: B1 VHH with M99K
In the case of B3, a half-maximal response (EC50) required 0.12 nM and the “Normalized Bmax (%)” value came out at 131.9%.

B4: VHH-1.3-3: VHH-1.3 variant I39Y, G40S, R55W, SEQ ID NO: 188; tested as Fc fusion (protein)
VHH: EVQLVESGGGLVQPGGSLRLSCAASGSTSSIRRYSWYRQAPGKGRELVAWFSSGGGTNYADSVKGRFTISGDNSKNTMYLQMNSLRAEDTAVYYCSARRLLGTSRVDYWGQGTQVTVSS
With B4, a half-maximal effect (EC50) was put at 1.81 nM and the “Normalized Bmax (%)” value is on record as 104.4%.

B5: VHH-1.3-17: VHH-1.3 variant R37V, R55H, R108I, N83K, SEQ ID NO: 202; tested as Fc fusion (protein)
VHH: B4 VHH with A24V, R32V, Y34I, S35G, W50H, N73K, R99I, Q114T
On to B5, for which the concentration for a half-maximal effect (EC50) was 0.67 nM and the “Normalized Bmax (%)” value turned out to be 72.8%.

B6: VHH-1.3-14: VHH-1.3 variant G64S, L110V, SEQ ID NO: 199; tested as Fc fusion (protein)
VHH: B4 VHH with Y34I, S35G, W50R, G56S, T57I, L101V
With B6, the EC50 was found to be 0.9 nM and the “Normalized Bmax (%)” value turned out to be 131.9%.

B7: VHH-1.3-1: VHH-1.3 variant G64S, SEQ ID NO: 186; tested as Fc fusion (protein)
VHH: B4 VHH with Y34I, S35G, W50R, G56S, Q114T
With B7, the midpoint of the response, the EC50, lay at 2.03 nM and the “Normalized Bmax (%)” value is given as 85.3%.

B8: VHH-1.3-6: VHH-1.3 variant R55H, SEQ ID NO: 191; tested as Fc fusion (protein)
VHH: B4 VHH with Y34I, S35G, W50H, Q114T
In the case of B8, the midpoint of the response, the EC50, lay at 3.75 nM and the “Normalized Bmax (%)” value is 97.0%.

B9: VHH-1.3-4: VHH-1.3 variant R38T, R108I, SEQ ID NO: 189; tested as Fc fusion (protein)
VHH: B4 VHH with R33T, Y34I, S35G, W50R, R99I, Q114T
B9: the concentration for a half-maximal effect (EC50) turned out to be 7.68 nM and the “Normalized Bmax (%)” value was determined as 82.4%.

B10: VHH-1.3-12: VHH-1.3 variant S28F, G64T, L110Y, SEQ ID NO: 197; tested as Fc fusion (protein)
VHH: B4 VHH with S27F, Y34I, S35G, W50R, G56T, L101Y
Consider B10, for which the response was half-maximal at 1.24 nM (EC50) and the “Normalized Bmax (%)” value was 79.6%.

B11: VHH-1.3-19: VHH-1.3 variant A25V, R38G, R55H, N83K, SEQ ID NO: 204; tested as Fc fusion (protein)
VHH: B4 VHH with A24V, R33G, Y34I, S35G, W50H, N73K
In the case of B11, the EC50 amounted to 0.45 nM and the “Normalized Bmax (%)” value is on record as 130.0%.

B12: VHH-1.3-15: VHH-1.3 variant S58G, SEQ ID NO: 200; tested as Fc fusion (protein)
VHH: B4 VHH with Y34I, S35G, W50R, S53G, Q114T
With B12, the concentration for a half-maximal effect (EC50) amounted to 2.82 nM and the “Normalized Bmax (%)” value was 107.1%.

B13: VHH-1.3-7: VHH-1.3 variant A25V, R55H, N82K, SEQ ID NO: 192; tested as Fc fusion (protein)
VHH: B4 VHH with A24V, Y34I, S35G, W50H, N73K, Q114T
On to B13, for which it took 0.56 nM to reach a half-maximal effect (EC50) and the “Normalized Bmax (%)” value is 111.8%.

B14: VHH-1.3-10: VHH-1.3 variant T65I, L110V, SEQ ID NO: 195; tested as Fc fusion (protein)
VHH: B4 VHH with E1Q, V5Q, Y34I, S35G, W50R, T57I, L101V
B14: the concentration for a half-maximal effect (EC50) came to 1.3 nM and the “Normalized Bmax (%)” value is on record as 125.4%.

B15: VHH-1.3-21: VHH-1.3 variant A25V, R38G, S57I, G81A, SEQ ID NO: 206; tested as Fc fusion (protein)
VHH: B4 VHH with A24V, R33G, Y34I, S35G, W50R, S52I, G71A
For the molecule B15, the EC50 was 1.62 nM and the “Normalized Bmax (%)” value turned out to be 133.9%.

B16: VHH-1.3-13: VHH-1.3 variant A25V, R38G, S57I, SEQ ID NO: 198; tested as Fc fusion (protein)
VHH: B4 VHH with A24V, R33G, Y34I, S35G, W50R, S52I
Consider B16, for which the EC50 was 0.38 nM and the “Normalized Bmax (%)” value is given as 91.1%.

B17: VHH-1.3-20: VHH-1.3 variant A25V, R38G, S57I, R108I, SEQ ID NO: 205; tested as Fc fusion (protein)
VHH: B4 VHH with A24V, R33G, Y34I, S35G, W50R, S52I, R99I
In the case of B17, the concentration giving a half-maximal response (EC50) was 0.49 nM and the “Normalized Bmax (%)” value was found to be 107.6%.

B18: VHH-1.3-18: VHH-1.3 variant A25V, R38G, S57I, N83K, SEQ ID NO: 203; tested as Fc fusion (protein)
VHH: B4 VHH with A24V, R33G, Y34I, S35G, W50R, S52I, N73K, Q114T
B18: the response was half-maximal at 0.31 nM (EC50) and the “Normalized Bmax (%)” value stood at 113.4%.

B19: VHH-1.3-16: VHH-1.3 variant S35T, R37V, G64S, R108I, SEQ ID NO: 201; tested as Fc fusion (protein)
VHH: B4 VHH with S30T, R32V, Y34I, S35G, W50R, G56S, R99I, Q114T
As for B19, the concentration for a half-maximal effect (EC50) was 3.1 nM and the “Normalized Bmax (%)” value is recorded as 79.0%.

B20: VHH-1.3-5: VHH-1.3 variant R55G, SEQ ID NO: 190; tested as Fc fusion (protein)
VHH: B4 VHH with Y34I, S35G, W50G, Q114T
For B20, a half-maximal response (EC50) required 4.42 nM and the “Normalized Bmax (%)” value is recorded as 90.1%.

B21: VHH-1.3-11: VHH-1.3 variant G64T, SEQ ID NO: 196; tested as Fc fusion (protein)
VHH: B4 VHH with E1Q, V5Q, Y34I, S35G, W50R, G56T, T57I
For B21, the midpoint of the response, the EC50, lay at 0.61 nM and the “Normalized Bmax (%)” value is 79.6%.

B22: VHH-1.3-2: VHH-1.3 variant L110V, SEQ ID NO: 187; tested as Fc fusion (protein)
VHH: B4 VHH with Y34I, S35G, W50R, L101V, Q114T
Take B22: the EC50 was 2.21 nM and the “Normalized Bmax (%)” value is 115.7%.

For orientation: EC50 means the concentration that produces a half-maximal response.

Source of the values: US20250092146A1, “ANTI-CCR8 ANTIBODIES, CONJUGATES, AND USES THEREOF” (Abilita Bio, Inc., priority 2023, published 2025).
